The data set deals with the molecule itself. In words: crystal structure; GLIC wt in DDM with 50 uM DHA and 0.5 mg/ml E. coli polar extract; sitting drop at 4 °C, sodium acetate pH 3.9-4.2, ammonium sulfate, PEG4000; 3.25 Å.

B1: GLIC wt (natural protein)
chain: QDMVSPPPPIADEPLTVNTGIYLIECYSLDDKAETFKVNAFLSLSWKDRRLAFDPVRSGVRVKTYEPEAIWIPEIRFVNVENARDADVVDISVSPDGTVQYLERFSARVLSPLDFRRYPFDSQTLHIYLIVRSVDTRNIVLAVDLEKVGKNDDVFLTGWDIESFTAVVKPANFALEDRLESKLDYQLRISRQYFSYIPNIILPMLFILFISWTAFWSTSYEANVTLVVSTLIAHIAFNILVETNLPKTPYMTYTGAIIFMIYLFYFVAVIEVTVQHYLKVESQPARAASITRASRIAFPVVFLLANIILAFLFFGF
notes: GLIC, prokaryotic pH-gated pentameric ligand-gated ion channel; construct as in Hilf and Dutzler 2009 and Bocquet et al. 2009; residues 5-315 are named in the structure; Homopentamer; Crystallised with 50 uM DHA and E. coli polar lipids; also called GLIC-pH4-DHA (the structure solved here); source: E. coli C43, purified (amylose resin, SEC in DDM); not shown: MBP, N-terminal, cleaved
Consider B1, for which the “stoichiometry N” value was 5.

The values above are taken from publication PMC5378477, “Crystal structure and dynamics of a lipid-induced potential desensitized-state of a pentameric ligand-gated channel” (eLife, 2017).
